Assay results published in patent US6939949B2.

How the values were obtained:
UvrA [1] = assay: BIACORE sensor chip (NTA), β domain immobilised, UvrA in solution, in the absence of ATP
UvrA [2] = assay: BIACORE sensor chip (NTA), β domain immobilised, UvrA in solution, in the presence of ATP

“TRCF-β (β domain of Thermus thermophilus HB8 transcription-repair coupling factor), His-tagged” showed a Kd (UvrA [1]) of 1300 nM and a Kd (UvrA [2]) of 500 nM.
